Bridge positions count the residues as written; N and C are the ends. Square brackets hold non-standard residues; d marks the D form. Ends that are not written are not given here. Nle = CCCC[C@H](N)C(=O)O
B1: bifunctional hormone of SEQ ID NO: 43 (peptide)
peptide: Ac-HRWGKPMCFGGRMDRIGAQSGLGCNSFRY-NH2
modifications: disulfide 8-24
SMILES: CC[C@H](C)[C@@H]1NC(=O)[C@H](CCCNC(=N)N)NC(=O)[C@H](CC(=O)O)NC(=O)[C@H](CCSC)NC(=O)[C@H](CCCNC(=N)N)NC(=O)CNC(=O)CNC(=O)[C@H](Cc2ccccc2)NC(=O)[C@@H](NC(=O)[C@H](CCSC)NC(=O)[C@@H]2CCCN2C(=O)[C@H](CCCCN)NC(=O)CNC(=O)[C@H](Cc2c[nH]c3ccccc23)NC(=O)[C@H](CCCNC(=N)N)NC(=O)[C@H](Cc2c[nH]cn2)NC(C)=O)CSSC[C@@H](C(=O)N[C@@H](CC(N)=O)C(=O)N[C@@H](CO)C(=O)N[C@@H](Cc2ccccc2)C(=O)N[C@@H](CCCNC(=N)N)C(=O)N[C@@H](Cc2ccc(O)cc2)C(N)=O)NC(=O)CNC(=O)[C@H](CC(C)C)NC(=O)CNC(=O)[C@H](CO)NC(=O)[C@H](CCC(N)=O)NC(=O)[C@H](C)NC(=O)CNC1=O
B2: bifunctional hormone of SEQ ID NO: 29 (peptide)
peptide: [Nle]EHFGGR[Nle]DRISKYRH[dF]RW-NH2
modifications: lactam 2-13; N-terminus assumed
SMILES: CCCC[C@@H]1NC(=O)[C@H](CCCNC(=N)N)NC(=O)CNC(=O)CNC(=O)[C@H](Cc2ccccc2)NC(=O)[C@H](Cc2c[nH]cn2)NC(=O)[C@@H](NC(=O)[C@@H](N)CCCC)CCC(=O)NCCCC[C@@H](C(=O)N[C@@H](Cc2ccc(O)cc2)C(=O)N[C@@H](CCCNC(=N)N)C(=O)N[C@@H](Cc2c[nH]cn2)C(=O)N[C@H](Cc2ccccc2)C(=O)N[C@@H](CCCNC(=N)N)C(=O)N[C@@H](Cc2c[nH]c3ccccc23)C(N)=O)NC(=O)[C@H](CO)NC(=O)[C@H]([C@@H](C)CC)NC(=O)[C@H](CCCNC(=N)N)NC(=O)[C@H](CC(=O)O)NC1=O
B3: bifunctional hormone of SEQ ID NO: 41 (peptide)
peptide: Ac-EHFRWGRRSSCFGGRMDRIGAQSGLGCNSFRY-NH2
modifications: disulfide 11-27
SMILES: CC[C@H](C)[C@@H]1NC(=O)[C@H](CCCNC(=N)N)NC(=O)[C@H](CC(=O)O)NC(=O)[C@H](CCSC)NC(=O)[C@H](CCCNC(=N)N)NC(=O)CNC(=O)CNC(=O)[C@H](Cc2ccccc2)NC(=O)[C@@H](NC(=O)[C@H](CO)NC(=O)[C@H](CO)NC(=O)[C@H](CCCNC(=N)N)NC(=O)[C@H](CCCNC(=N)N)NC(=O)CNC(=O)[C@H](Cc2c[nH]c3ccccc23)NC(=O)[C@H](CCCNC(=N)N)NC(=O)[C@H](Cc2ccccc2)NC(=O)[C@H](Cc2c[nH]cn2)NC(=O)[C@H](CCC(=O)O)NC(C)=O)CSSC[C@@H](C(=O)N[C@@H](CC(N)=O)C(=O)N[C@@H](CO)C(=O)N[C@@H](Cc2ccccc2)C(=O)N[C@@H](CCCNC(=N)N)C(=O)N[C@@H](Cc2ccc(O)cc2)C(N)=O)NC(=O)CNC(=O)[C@H](CC(C)C)NC(=O)CNC(=O)[C@H](CO)NC(=O)[C@H](CCC(N)=O)NC(=O)[C@H](C)NC(=O)CNC1=O
B4: bifunctional hormone of SEQ ID NO: 46 (peptide)
peptide: Ac-H[dF]RWGPKPVQGSGCPGRKMDRISSSSGLGCKVLRRH-NH2
modifications: disulfide 14-30
SMILES: CC[C@H](C)[C@@H]1NC(=O)[C@H](CCCNC(=N)N)NC(=O)[C@H](CC(=O)O)NC(=O)[C@H](CCSC)NC(=O)[C@H](CCCCN)NC(=O)[C@H](CCCNC(=N)N)NC(=O)CNC(=O)[C@@H]2CCCN2C(=O)[C@@H](NC(=O)CNC(=O)[C@H](CO)NC(=O)CNC(=O)[C@H](CCC(N)=O)NC(=O)[C@@H](NC(=O)[C@@H]2CCCN2C(=O)[C@H](CCCCN)NC(=O)[C@@H]2CCCN2C(=O)CNC(=O)[C@H](Cc2c[nH]c3ccccc23)NC(=O)[C@H](CCCNC(=N)N)NC(=O)[C@@H](Cc2ccccc2)NC(=O)[C@H](Cc2c[nH]cn2)NC(C)=O)C(C)C)CSSC[C@@H](C(=O)N[C@@H](CCCCN)C(=O)N[C@H](C(=O)N[C@@H](CC(C)C)C(=O)N[C@@H](CCCNC(=N)N)C(=O)N[C@@H](CCCNC(=N)N)C(=O)N[C@@H](Cc2c[nH]cn2)C(N)=O)C(C)C)NC(=O)CNC(=O)[C@H](CC(C)C)NC(=O)CNC(=O)[C@H](CO)NC(=O)[C@H](CO)NC(=O)[C@H](CO)NC(=O)[C@H](CO)NC1=O
B5: bifunctional hormone of SEQ ID NO: 44 (peptide)
peptide: Ac-H[dF]RWGKPMCFGGRMGAQSGLGCNSFRY-NH2
modifications: disulfide 9-22
SMILES: CSCC[C@@H]1NC(=O)[C@H](CCCNC(=N)N)NC(=O)CNC(=O)CNC(=O)[C@H](Cc2ccccc2)NC(=O)[C@@H](NC(=O)[C@H](CCSC)NC(=O)[C@@H]2CCCN2C(=O)[C@H](CCCCN)NC(=O)CNC(=O)[C@H](Cc2c[nH]c3ccccc23)NC(=O)[C@H](CCCNC(=N)N)NC(=O)[C@@H](Cc2ccccc2)NC(=O)[C@H](Cc2c[nH]cn2)NC(C)=O)CSSC[C@@H](C(=O)N[C@@H](CC(N)=O)C(=O)N[C@@H](CO)C(=O)N[C@@H](Cc2ccccc2)C(=O)N[C@@H](CCCNC(=N)N)C(=O)N[C@@H](Cc2ccc(O)cc2)C(N)=O)NC(=O)CNC(=O)[C@H](CC(C)C)NC(=O)CNC(=O)[C@H](CO)NC(=O)[C@H](CCC(N)=O)NC(=O)[C@H](C)NC(=O)CNC1=O
B6: bifunctional hormone of SEQ ID NO: 45 (peptide)
peptide: Ac-H[dF]RWSPKMVQGSGCPGRKMDRISSSSGLGCKVLRRH-NH2
modifications: disulfide 14-30
SMILES: CC[C@H](C)[C@@H]1NC(=O)[C@H](CCCNC(=N)N)NC(=O)[C@H](CC(=O)O)NC(=O)[C@H](CCSC)NC(=O)[C@H](CCCCN)NC(=O)[C@H](CCCNC(=N)N)NC(=O)CNC(=O)[C@@H]2CCCN2C(=O)[C@@H](NC(=O)CNC(=O)[C@H](CO)NC(=O)CNC(=O)[C@H](CCC(N)=O)NC(=O)[C@@H](NC(=O)[C@H](CCSC)NC(=O)[C@H](CCCCN)NC(=O)[C@@H]2CCCN2C(=O)[C@H](CO)NC(=O)[C@H](Cc2c[nH]c3ccccc23)NC(=O)[C@H](CCCNC(=N)N)NC(=O)[C@@H](Cc2ccccc2)NC(=O)[C@H](Cc2c[nH]cn2)NC(C)=O)C(C)C)CSSC[C@@H](C(=O)N[C@@H](CCCCN)C(=O)N[C@H](C(=O)N[C@@H](CC(C)C)C(=O)N[C@@H](CCCNC(=N)N)C(=O)N[C@@H](CCCNC(=N)N)C(=O)N[C@@H](Cc2c[nH]cn2)C(N)=O)C(C)C)NC(=O)CNC(=O)[C@H](CC(C)C)NC(=O)CNC(=O)[C@H](CO)NC(=O)[C@H](CO)NC(=O)[C@H](CO)NC(=O)[C@H](CO)NC1=O

Experiments:
ANP receptor (on ANP …) = target: ANP receptor (on ANP receptor-expressing LLC-PK1 cells); assay: cell-based or functional assay
[1] = target: MCR1 receptor (on MCR1 receptor-expressing B16-F1 cells) (UniProt Q01727 1-315); assay: cell-based or functional assay
MCR1 receptor (on MCR1 receptor-expressing B16-F1 cells), sequence (Q01727 whole entry): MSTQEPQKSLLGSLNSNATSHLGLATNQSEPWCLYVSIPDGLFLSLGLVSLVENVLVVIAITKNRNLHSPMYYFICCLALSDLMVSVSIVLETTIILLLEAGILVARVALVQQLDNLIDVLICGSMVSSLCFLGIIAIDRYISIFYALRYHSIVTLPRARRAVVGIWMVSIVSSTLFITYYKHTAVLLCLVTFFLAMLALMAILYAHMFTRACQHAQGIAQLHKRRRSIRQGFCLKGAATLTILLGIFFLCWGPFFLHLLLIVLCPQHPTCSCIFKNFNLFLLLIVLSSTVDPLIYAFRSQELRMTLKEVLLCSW

Binder | EC50 on the production of cGMP (LLC-PK1 cells) (ANP receptor (on ANP …)) [nM] | EC50 on the production of cAMP (BC16-F1 cells) [1] [nM]
B1 | 86.8 | 
B2 | 1430 | 
B3 | 8.9 | 
B4 |  | 28
SLRRSSCFGGRMDRIGAQSGLGCNSFRY (disulfide 7-23; also: C-terminal amide in Table IV, not in Table I) [native ANP (SEQ ID NO: 2)] | 3.3 | 
B5 |  | 1.2
B6 |  | 365

From patent publication US20090011997A1 (THERATECHNOLOGIES, published 2009)
